# Results taken from US20250327097A1, “ORGANISMS PRODUCING LESS CROTONIC ACID” (Global Bioenergies, priority 2021, published 2025).
# Positions count from the first letter of the chain named. Names and notes keep the numbering of the source.
# B1: I283T-P284D-N287P-S322T-N388M-K423C-C430N-L432F-L434W-S436N-A463G-Y469D (protein)
# chain: MFLKSLREQINLLKRQGDLRIINRPVDSYLEAAAIIRRSTETKAPVPLMTNIKGYPGCSIVGGLAALSSNPEYPLSRVAMSLGLSTTASAQSIVQYLIDGLKKTPYLPVEIDSNSAPCKQNILRGEDASLAHFPIPQVHQHDGNRYVNTWGVFIVESPDGQWCNWSIQRVQYLNDRQMIALVFPSQHISDIWEEWVKIGKPMPYALVQGCEPIVPYIAGLPLLERNVNEAEYIGALYGKGIEVVKCETHDLRVPASSEVVIEGYFAITREGVEGPFGEFAGYTDNEPSLQPILSITAISWQDDPIWPVVAEGKPVDEYHTCTGIGDAAAIQNVLLTANLPVSFVWVPLYSACHLMIVSINRHWRQTHPDLTSEQLTKKVGDVIHQTRMSIKLPKIVVLDDDVDPADTESLLWALATRIHPERCRYFYESNIFPWLNCYSEEERHNRKGKRVIIDALLPENHGGISSFDDAYPDDIKQRVLMHWETDFSHD
# B2: I283T-P284D-N287P-S322T-N388M-S429A-C430N-L432F-L434W-S436N-A463G-Y469D (protein)
# chain: B1 chain with C423K, S429A
# B3: I283T-P284D-N285L-N287P-S322T-N388M-C430N-L432F-L434W-S436N-A463G-Y469D (protein)
# chain: B1 chain with N285L, C423K
# B4: I283T-P284D-N285I-N287P-S322T-N388M-C430N-L432F-L434W-S436N-A463G-Y469D (protein)
# chain: B1 chain with N285I, C423K
# B5: I283T-P284D-N287P-S288T-S322T-N388M-C430N-L432F-L434W-S436N-A463G-Y469D (protein)
# chain: B1 chain with S288T, C423K
# B6: I283T-P284D-N285A-N287P-S322T-N388M-C430N-L432F-L434W-S436N-A463G-Y469D (protein)
# chain: B1 chain with N285A, C423K
# B7: K394R-L432F-L434W (protein)
# chain: MFLKSLREQINLLKRQGDLRIINRPVDSYLEAAAIIRRSTETKAPVPLMTNIKGYPGCSIVGGLAALSSNPEYPLSRVAMSLGLSTTASAQSIVQYLIDGLKKTPYLPVEIDSNSAPCKQNILRGEDASLAHFPIPQVHQHDGNRYVNTWGVFIVESPDGQWCNWSIQRVQYLNDRQMIALVFPSQHISDIWEEWVKIGKPMPYALVQGCEPIVPYIAGLPLLERNVNEAEYIGALYGKGIEVVKCETHDLRVPASSEVVIEGYFAITREGVEGPFGEFAGYIPNENSLQPILSITAISWQDDPIWPVVAEGKPVDEYHTCSGIGDAAAIQNVLLTANLPVSFVWVPLYSACHLMIVSINRHWRQTHPDLTSEQLTKKVGDVIHQTRNSIKLPRIVVLDDDVDPADTESLLWALATRIHPERKRYFYESCIFPWLSCYSEEERHNRKGKRVIIDALLPENHGAISSFDYAYPDDIKQRVLMHWETDFSHD
# B8: N388M-K394H-C430P-L432F-L434W-S436N (protein)
# chain: B7 chain with N388M, R394H, C430P, S436N
# B9: I283T-P284D-N287P-S322T-N388M-C430N-L432F-L434W-S436T-A463G-Y469D (protein)
# chain: B1 chain with C423K, N436T
# B10: N388M-K394R-L432F-L434W-S436A (protein)
# chain: B7 chain with N388M, S436A
# B11: N388M-K394R-C430P-L432F-L434W-S436A (protein)
# chain: B7 chain with N388M, C430P, S436A
# B12: H141Y-N388M-K394R-C430P-L432F-L434W-S436N (protein)
# chain: B7 chain with H141Y, N388M, C430P, S436N
# B13: N388M-K394R-C430P-L432F-L434W-S436N (protein)
# chain: B7 chain with N388M, C430P, S436N
# B14: N388M-C430P-L432F-L434W-S436A (protein)
# chain: B7 chain with N388M, R394K, C430P, S436A
# B15: N388M-C430S-L432F-L434W-S436N (protein)
# chain: B7 chain with N388M, R394K, C430S, S436N
# B16: N388M-K394R-L432F-L434W-S436N (protein)
# chain: B7 chain with N388M, S436N
# B17: I283S-P284D-N287P-S322T-N388M-C430N-L432F-L434W-S436N-A463G-Y469D (protein)
# chain: B1 chain with T283S, C423K
# B18: I283F-P284D-N287P-S322T-N388M-C430N-L432F-L434W-S436N-A463G-Y469D (protein)
# chain: B1 chain with T283F, C423K
# B19: N388M-L432F-L434W-S436N (protein)
# chain: B7 chain with N388M, R394K, S436N
# B20: N388M-K394A-C430P-L432F-L434W-S436N (protein)
# chain: B7 chain with N388M, R394A, C430P, S436N
# B21: C430P-L432F-L434W-S436A (protein)
# chain: B7 chain with R394K, C430P, S436A
# B22: K394R-C430S-L432F-L434W-S436A (protein)
# chain: B7 chain with C430S, S436A
# B23: C430S-L432F-L434W-S436A (protein)
# chain: B7 chain with R394K, C430S, S436A
# B24: C430S-L432F-L434W-S436N (protein)
# chain: B7 chain with R394K, C430S, S436N
# B25: N388M-C430A-L432F-L434W-S436N (protein)
# chain: B7 chain with N388M, R394K, C430A, S436N
# B26: K394R-C430S-L432F-L434W-S436N (protein)
# chain: B7 chain with C430S, S436N
# B27: K394R-L432F-L434W-S436N (protein)
# chain: B7 chain with S436N
# B28: N388M-K394R-C430S-L432F-L434W-S436A (protein)
# chain: B7 chain with N388M, C430S, S436A
# B29: L432F-L434W-S436N (protein)
# chain: B7 chain with R394K, S436N
# B30: C430P-L432F-L434W-S436N (protein)
# chain: B7 chain with R394K, C430P, S436N
# B31: N388M-K394R-I395V-C430P-L432F-L434W-S436N (protein)
# chain: B7 chain with N388M, I395V, C430P, S436N
# B32: N388M-L432F-L434W-S436A (protein)
# chain: B7 chain with N388M, R394K, S436A
# B33: N388M-K394R-C430K-L432F-L434W-S436N (protein)
# chain: B7 chain with N388M, C430K, S436N
# B34: N388M-K394R-C430N-L432F-L434W-S436N (protein)
# chain: B7 chain with N388M, C430N, S436N
# B35: C430S-L432F-L434W (protein)
# chain: B7 chain with R394K, C430S
# B36: N388M-C430P-L432F-L434W-S436N (protein)
# chain: B7 chain with N388M, R394K, C430P, S436N
# B37: K394R-L432F-L434W-S436A (protein)
# chain: B7 chain with S436A
# B38: N388M-K394C-C430P-L432F-L434W-S436N (protein)
# chain: B7 chain with N388M, R394C, C430P, S436N
# B39: K394R-C430P-L432F-L434W-S436A (protein)
# chain: B7 chain with C430P, S436A
# B40: N388M-C430S-L432F-L434W-S436A (protein)
# chain: B7 chain with N388M, R394K, C430S, S436A
# B41: N388M-K394R-C430S-L432F-L434W-S436N (protein)
# chain: B7 chain with N388M, C430S, S436N
# B42: K394R-C430P-L432F-L434W-S436N (protein)
# chain: B7 chain with C430P, S436N
# Test system: 3-methylcrotonic acid
# Type: biochemical, Yersinia frederiksenii
# Parameters: key: “+” representing a low increase in activity; “++++” representing a high increase in activity
row,Molecule,Activity relative to WT
1,B1,++++
2,B2,++++
3,B3,++++
4,B4,++++
5,B5,++++
6,B6,++++
7,B7,+
8,B8,+
9,B9,++++
10,B10,+
11,B11,+
12,B12,+
13,B13,+
14,B14,+
15,B15,+
16,B16,+
17,B17,++++
18,B18,++++
19,B19,+
20,B20,+
21,B21,+

row,Molecule,Activity relative to WT
1,B22,+
2,B23,+
3,B24,+
4,B25,+
5,B26,+
6,B27,+
7,B28,+
8,B29,+
9,B30,+
10,B31,+
11,B32,+
12,B33,+
13,B34,+
14,B35,+
15,B36,+
16,B37,+
17,B38,+
18,B39,+
19,B40,+
20,B41,+
21,B42,+
